Results from paper PMC6877644.

Tests used:
[1] = biological target: JASPer (untagged, in JJ-complex);JIL-1 (Drosophila melanogaster;Drosophila melanogaster) (UniProt Q9V3I5); test: nucleosome library pull-down with sequencing; settings: H3K36me3; DNA EMSA: 50 mM HEPES pH 7.6, 50 mM NaCl, 10% glycerol, 2 mM MgCl2, 10% BSA, RT 10 min; RNA EMSA: 25 mM HEPES pH 7.6, 100 mM KCl, 3 mM MgCl2, 1 mM DTT, 5% …; scale: fold enrichment over unmodified nucleosome
[2] = biological target: T1, JASPer (Drosophila melanogaster) (UniProt Q9VAA9); test: nucleosome library pull-down with sequencing; parameters: dose or concentration left out as unconfirmed; settings: H3K36me3; scale: fold enrichment over unmodified nucleosome
T1 sequence: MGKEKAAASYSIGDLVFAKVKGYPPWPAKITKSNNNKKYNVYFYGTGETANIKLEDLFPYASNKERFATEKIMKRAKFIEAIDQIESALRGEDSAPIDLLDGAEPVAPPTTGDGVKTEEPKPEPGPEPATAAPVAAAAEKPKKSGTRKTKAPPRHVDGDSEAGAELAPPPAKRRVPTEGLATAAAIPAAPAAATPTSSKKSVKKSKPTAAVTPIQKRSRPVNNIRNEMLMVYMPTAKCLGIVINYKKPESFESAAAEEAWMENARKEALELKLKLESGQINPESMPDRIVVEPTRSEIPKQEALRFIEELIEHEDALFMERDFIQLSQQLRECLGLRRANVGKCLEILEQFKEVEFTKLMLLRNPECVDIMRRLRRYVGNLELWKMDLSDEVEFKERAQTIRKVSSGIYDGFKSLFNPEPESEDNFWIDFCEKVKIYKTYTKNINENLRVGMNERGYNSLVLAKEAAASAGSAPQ

[3] = biological target: JASPer-FLAG (D. melanogaster); test: pull-down; 1.5 pmol FLAG-tagged JASPer or JJ-complex pre-coupled to FLAG-M2 beads, incubated with 1.38 pmol library of 115 DNA-barcoded nucleosome types (12 fmol each) in 200 µL 20 mM Tris/Cl pH 7.5, 50 mM NaCl, 5 mM EDTA, 0.1% TWEEN 20, 4 h at 4 °C; read out by sequencing of the barcodes, relative to the unmodified nucleosome set to 1
[4] = biological target: JASPer-JIL-1 (JJ)-complex (FLAG-JIL-1 and untagged JASPer) (D. melanogaster) (UniProt Q9V3I5); test: as above
Sequence of JASPer-JIL-1 (JJ)-complex (FLAG-JIL-1 and untagged JASPer) (D. melanogaster) (Q9V3I5 whole entry, one chain of several): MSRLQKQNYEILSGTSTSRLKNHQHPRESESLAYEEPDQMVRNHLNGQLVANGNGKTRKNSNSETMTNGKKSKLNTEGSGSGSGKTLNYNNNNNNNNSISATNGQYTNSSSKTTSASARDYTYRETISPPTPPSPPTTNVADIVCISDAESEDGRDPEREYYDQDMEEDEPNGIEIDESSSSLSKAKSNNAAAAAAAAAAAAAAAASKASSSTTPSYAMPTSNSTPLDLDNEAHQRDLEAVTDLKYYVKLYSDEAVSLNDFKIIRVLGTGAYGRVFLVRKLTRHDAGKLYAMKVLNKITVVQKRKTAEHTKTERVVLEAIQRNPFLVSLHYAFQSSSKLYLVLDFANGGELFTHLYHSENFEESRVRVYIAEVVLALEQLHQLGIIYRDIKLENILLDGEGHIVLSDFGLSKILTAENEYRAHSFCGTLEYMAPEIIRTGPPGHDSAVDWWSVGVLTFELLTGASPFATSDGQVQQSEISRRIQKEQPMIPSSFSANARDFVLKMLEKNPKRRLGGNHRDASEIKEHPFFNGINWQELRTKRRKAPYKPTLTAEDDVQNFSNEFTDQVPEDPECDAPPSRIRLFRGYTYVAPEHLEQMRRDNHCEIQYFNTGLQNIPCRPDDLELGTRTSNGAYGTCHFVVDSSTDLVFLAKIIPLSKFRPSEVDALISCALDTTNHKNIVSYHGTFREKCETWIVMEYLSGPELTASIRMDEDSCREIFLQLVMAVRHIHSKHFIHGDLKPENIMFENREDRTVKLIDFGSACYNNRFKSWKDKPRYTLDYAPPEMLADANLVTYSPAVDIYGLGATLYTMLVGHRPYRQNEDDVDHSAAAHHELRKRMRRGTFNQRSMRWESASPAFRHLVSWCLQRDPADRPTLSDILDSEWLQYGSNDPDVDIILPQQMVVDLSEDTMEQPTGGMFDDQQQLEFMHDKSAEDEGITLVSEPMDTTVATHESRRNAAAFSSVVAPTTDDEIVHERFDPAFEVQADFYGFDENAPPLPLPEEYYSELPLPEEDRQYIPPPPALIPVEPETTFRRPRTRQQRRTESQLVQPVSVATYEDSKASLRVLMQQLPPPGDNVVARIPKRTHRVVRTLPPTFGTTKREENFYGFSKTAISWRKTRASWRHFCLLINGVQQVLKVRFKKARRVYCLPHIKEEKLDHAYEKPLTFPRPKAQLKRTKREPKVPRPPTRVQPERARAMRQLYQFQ

Sequence of JASPer (untagged, in JJ-complex);JIL-1 (Drosophila melanogaster;Drosophila melanogaster) (Q9V3I5 whole entry, looked up, one chain of several): as the sequence (Q9V3I5 whole entry, one chain of several) above

fold enrichment relative to the unmodified nucleosome [3] | fold enrichment over the unmodified nucleosome [4] | Substance | binding signal [1] | binding signal [2]
 |  | H3K36me3 mononucleosome (barcoded library) | 70 | 40
40 fold | 70 fold | nucleosome bearing the single H3K36me3 modification (complex) |  | 
